Broadly, the Kd is the constant that tells how readily two partners part at equilibrium. One may read the koff as a measure of how fast the partners let go of each other. As usually defined, the kon is the second-order rate constant of association. What is called EC50 (read off the curve) is the concentration at which the effect is half-maximal. Lower therefore signals greater potency. For orientation: EC50 means the concentration needed to bring the measured effect to its halfway point. As usually defined, the IC50 is the concentration that inhibits the measured activity by half.

Like-named read-outs stand apart in the source and are kept apart here.

Data on three molecules can be found in US20250326842A1 (BEIGENE SWITZERLAND, published 2025).

Test [1] deals with T1, human PVRL2 overexpressed on Farage cells (human, UniProt Q92692 32-538).
T1 construct: also called Farage-hPVRL2 cells; surface PVRL2
T1 sequence: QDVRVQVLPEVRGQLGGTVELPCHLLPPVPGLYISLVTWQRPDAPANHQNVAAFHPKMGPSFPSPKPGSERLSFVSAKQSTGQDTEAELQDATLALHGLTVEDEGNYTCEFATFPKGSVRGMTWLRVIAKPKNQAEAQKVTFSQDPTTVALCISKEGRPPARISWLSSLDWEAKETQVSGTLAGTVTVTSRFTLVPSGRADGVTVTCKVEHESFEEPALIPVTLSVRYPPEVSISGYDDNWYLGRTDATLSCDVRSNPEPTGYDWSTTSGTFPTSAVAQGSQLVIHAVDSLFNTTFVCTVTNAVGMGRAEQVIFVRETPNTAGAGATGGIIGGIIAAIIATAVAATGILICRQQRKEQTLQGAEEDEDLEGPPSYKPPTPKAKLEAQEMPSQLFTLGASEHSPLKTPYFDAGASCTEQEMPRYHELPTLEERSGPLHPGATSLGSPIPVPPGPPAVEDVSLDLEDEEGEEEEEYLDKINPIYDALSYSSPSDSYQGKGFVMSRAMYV
Nature of the test: flow cytometry: 300 ng/ml hPVRIG-mIgG2a on Farage-hPVRL2 cells, PE anti-mouse IgG2a [panel A].

The target of test [2] is T2, human PVRIG recombinant protein (human, UniProt Q6DKI7 41-171).
T2 construct: also called human PVRIG protein; recombinant human antigen PVRIG
T2 sequence: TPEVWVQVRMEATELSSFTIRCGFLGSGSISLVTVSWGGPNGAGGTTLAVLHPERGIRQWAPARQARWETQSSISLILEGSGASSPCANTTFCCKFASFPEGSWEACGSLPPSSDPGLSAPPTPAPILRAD
In words: SPR, antibody captured via anti-human Fc, human PVRIG analyte. The text has this: For affinity determination, antibodies were captured by anti-human Fc antibodies, and used in the affinity determination based on surface plasmon resonance (SPR) technology.
In general terms: SPR reads the build-up and loss of mass on a sensor chip optically.

For test [3], the target named is T3, human PVRIG expressed on cells (human, UniProt Q6DKI7 41-326).
T3 construct: Jurkat cells engineered to express human PVRIG; also called hPVRIG-Jurkat; native human PVRIG
T3 sequence: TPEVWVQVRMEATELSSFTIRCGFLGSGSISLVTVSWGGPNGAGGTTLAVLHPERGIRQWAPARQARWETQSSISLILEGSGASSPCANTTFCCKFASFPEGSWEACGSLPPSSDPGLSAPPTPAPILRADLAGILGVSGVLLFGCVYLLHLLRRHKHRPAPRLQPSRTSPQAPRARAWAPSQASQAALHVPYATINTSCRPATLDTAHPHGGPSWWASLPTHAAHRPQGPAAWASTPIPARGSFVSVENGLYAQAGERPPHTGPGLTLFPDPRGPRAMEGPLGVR
In words: flow cytometry on Jurkat cells expressing human PVRIG, anti-hFc-AF647 detection. The protocol:
To evaluate the binding activity of anti-PVRIG antibodies to native PVRIG on living cells, Jurkat cells were engineered to express human PVRIG. […] EC50 values for dose dependent binding to human native PVRIG were determined by fitting the dose response data to the four-parameter logistic model with GraphPad Prism™.

Test [4] has as its target T4, hPVRIG-ECD-his (human, UniProt Q6DKI7 41-171).
T4 construct: Acrobiosystems PVG-H52H4; also called hPVRIG-His; human PVRIG-His; not shown: His tag
T4 sequence: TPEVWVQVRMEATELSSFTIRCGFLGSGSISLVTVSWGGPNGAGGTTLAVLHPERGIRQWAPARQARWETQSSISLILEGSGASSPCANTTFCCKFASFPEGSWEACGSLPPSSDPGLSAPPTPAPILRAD
In words: blocking ELISA: hPVRIG-His coated, antibody mixed with PVRL2-biotin at 1 ug/mL; % inhibition of PVRL2 binding.

Test [5] concerns the target T5, Cyno PVRIG expressed on HEK293 cells (cynomolgus monkey).
T5 construct: also called native Cyno PVRIG
T5 chain: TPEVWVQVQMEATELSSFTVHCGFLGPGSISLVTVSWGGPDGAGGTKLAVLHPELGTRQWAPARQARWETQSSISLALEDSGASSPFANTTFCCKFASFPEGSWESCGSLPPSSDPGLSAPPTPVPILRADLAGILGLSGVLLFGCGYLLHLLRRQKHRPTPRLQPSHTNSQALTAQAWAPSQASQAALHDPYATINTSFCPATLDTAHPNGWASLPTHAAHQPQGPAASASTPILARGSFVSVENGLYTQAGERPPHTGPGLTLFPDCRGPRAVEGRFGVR
In words: flow cytometry on 293T cells expressing cyno PVRIG, anti-hFc-AF647 detection. The procedure:
To evaluate the binding activity of anti-PVRIG antibodies to native Cyno PVRIG on living cells. HEK293 cells were engineered to express Cyno PVRIG. HEK293 expressing PVRIG cells were seeded in 96 well plates and were incubated with a serial dilution of anti-PVRIG antibodies. […] EC50 values for dose dependent binding to Cyno native PVRIG were determined by fitting the dose response data to the four-parameter logistic model with GraphPad Prism™.
A general note: In flow cytometry, cells or beads pass a laser one at a time.

In test [6] the target is T3, human PVRIG expressed on cells. In words: FACS on human PVRIG-expressing cells.
Test [7] concerns the target T2, human PVRIG recombinant protein. In words: SPR, antibody captured via anti-human Fc, human PVRIG analyte. The procedure: Chimeric anti-PVRIG antibodies were generated in human IgG1 format and characterized for binding kinetics by surface plasmon resonance (SPR) assays using BIAcore™ T-200 (GE Life Sciences). […] Then a serial dilution of human or Cyno PVRIG protein was flowed over the chip surface and changes in surface plasmon resonance signals were analyzed to calculate the association rates (kₒₙ) and dissociation rates (koff) by using the one-to-one Langmuir binding model (BIA Evaluation Software, GE Life Sciences). The equilibrium dissociation constant (KD) was calculated as the ratio koff/kₒₙ.
This is another data set of the same source.

Test [8] shares this target. In words: ELISA, chimeric antibody on recombinant human PVRIG.
Test [9] concerns the target T4, hPVRIG-ECD-his. Nature of the test: competition ELISA, antibody against PVRL2 on coated human PVRIG. A general note: An ELISA detects its analyte on a solid surface through an enzyme-linked reagent.

B1: human PVRIG-mIgG2a (Fc fusion)
chain: TPEVWVQVRMEATELSSFTIRCGFLGSGSISLVTVSWGGPNGAGGTTLAVLHPERGIRQWAPARQARWETQSSISLILEGSGASSPCANTTFCCKFASFPEGSWEACGSLPPSSDPGLSAPPTPAPILRAD
notes: also called hPVRIG-mIgG2a; hPVRIG; not shown: mouse IgG2a Fc
As for B1, the binding result in test [1] is recorded as “binds”.

B2: BGA862 (antibody, V domains shown)
VH: EVQLVESGGGLVKPGGSLRLSCAASGFTFSSYGLSWVRQAPGKGLEWVSEISSGGTYTYYPDTVTGRFTISRDNAKNTLYLQMSSLRAEDTAVYYCARGDPFGYWGQGTLVTVSS
VL: DIQMTQSPSSLSASVGDRVTITCKASQDVMTAVAWYQQKPGKAPKLLIYSTSYRFTGVPSRFSGSGSGTDFTLTISSLQPEDFATYYCQQHYSTPRTFGGGTKVEIK
notes: Humanized BGA86
Turning to B2, in test [2], the Kd stood at 0.898 nM, the koff was determined as 0.00216 s⁻¹ and the kon amounted to 2.41e+06 M⁻¹ s⁻¹. In test [3], the “EC50 (read off the curve)” value was around 0.01 µg/mL. In addition, the “IC50 (read off the curve)” value with hPVRIG-ECD-his [4] was around 0.1 µg/mL. For the same molecule, in [5], the “EC50 (read off the curve)” value was around 0.01 µg/mL.

B3: BGA86 (antibody, human IgG1, V domains shown)
VH: EVQLQESGGGSVKPGGSLQLSCAASGFTFSSYGMSWIRQSPEKKLEWVAEISSGGTYTYYPDTVTGRFTISRDNAKNTLYLEMSSLRSEDTAMYYCARGDPFGYWGQGTLVTVSA
VL: DVVMTQSHKFVSTSVGGRVSITCKASQDVMTAVAWYQQKPGQSPKLLIYSTSYRFTGVPDRFTGSGSGTDFTLTINGVQAEDLAVYSCQQHYSTPRTFGGGTKLEIK
notes: also called BGA86-WT
As for B3, in test [2], the Kd turned out to be 0.304 nM, the koff is 0.000772 s⁻¹ and the kon came to 2.54e+06 M⁻¹ s⁻¹. In test [6], the EC50 stood at 0.038 nM and the “binding Emax (MFI)” value is 1030 MFI. Besides, in test [3], the “EC50 (read off the curve)” value was around 0.02 µg/mL. For the same molecule, in test [7], the Kd stood at 0.161 nM, the koff turned out to be 0.00215 s⁻¹ and the kon came to 1.34e+07 M⁻¹ s⁻¹. Further, the “IC50 (read off the curve)” value with hPVRIG-ECD-his [4] was around 0.1 µg/mL. Also, in test [5], the “EC50 (read off the curve)” value is around 0.01 µg/mL. The EC50 in [8] was 0.069 nM. Also, in the test with hPVRIG-ECD-his [9], the IC50 is 0.885 nM and the “PVRIG/PVRL2 blocking Emax (% Inhibition)” value was determined as 97.2%.
